This is an account of results in patent publication US20240100162A1 (published 2024).

This assay has as its target T1, MAGE-B2 peptide on HLA-A*02:01 (human).
T1 peptide: GVYDGEEHSV
Description: multimer staining.

B1: TCR7 (TCR, V domains shown)
Valpha: GQNIDQPTEMTATEGAIVQINCTYQTSGFNGLFWYQQHAGEAPTFLSYNVLDGLEEKGRFSSFLSRSKGYSYLLLKELQMKDSASYLCAVRRLGGYQKVTFGTGTKLQVIP
Vbeta: GAGVSQSPSNKVTEKGKDVELRCDPISGHTALYWYRQRLGQGLEFLIYFQGNSAPDKSGLPSDRFSAERTGESVSTLTIQRTQQEDSAVYLCASSLVTGSSYNEQFFGPGTRLTVL
As for B1, the binding result is “recognises”.

B2: TCR11 (TCR, V domains shown)
Valpha: GEDVEQSLFLSVREGDSSVINCTYTDSSSTYLYWYKQEPGAGLQLLTYIFSNMDMKQDQRLTVLLNKKDKHLSLRIADTQTGDSAIYFCAEKSITSYDKVIFGPGTSLSVIP
Vbeta: DVKVTQSSRYLVKRTGEKVFLECVQDMDHENMFWYRQDPGLGLRLIYFSYDVKMKEKGDIPEGYSVSREKKERFSLILESASTNQTSMYLCASTRRGTYGYTFGSGTRLTVV
B2: the binding result was “recognises”.

B3: TCR10 (TCR, V domains shown)
Valpha: AQSVAQPEDQVNVAEGNPLTVKCTYSVSGNPYLFWYVQYPNRGLQFLLKYITGDNLVKGSYGFEAEFNKSQTSFHLKKPSALVSDSALYFCAVRDNARLMFGDGTQLVVKP
Vbeta: SAVISQKPSRDICQRGTSLTIQCQVDSQVTMMFWYRQQPGQSLTLIATANQGSEATYESGFVIDKFPISRPNLTFSTLTVSNMSPEDSSIYLCSVGPSGHTGYTFGSGTRLTVV
On to B3, for which the binding result is recorded as “recognises”.

B4: TCR8 (TCR, V domains shown)
Valpha: AQKITQTQPGMFVQEKEAVTLDCTYDTSDQSYGLFWYKQPSSGEMIFLIYQGSYDEQNATEGRYSLNFQKARKSANLVISASQLGDSAMYFCAMRGPTSYGKLTFGQGTILTVHP
Vbeta: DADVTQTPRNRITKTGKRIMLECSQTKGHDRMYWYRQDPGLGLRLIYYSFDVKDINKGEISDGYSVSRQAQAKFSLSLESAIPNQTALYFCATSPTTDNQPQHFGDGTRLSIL
With B4, the binding result is given as “recognises”.

B5: TCR6 (TCR, V domains shown)
Valpha: AQTVTQSQPEMSVQEAETVTLSCTYDTSENNYYLFWYKQPPSRQMILVIRQEAYKQQNATENRFSVNFQKAAKSFSLKISDSQLGDTAMYFCAFFNAGKSTFGDGTTLTVKP
Vbeta: EAGVAQSPRYKIIEKRQSVAFWCNPISGHATLYWYQQILGQGPKLLIQFQNNGVVDDSQLPKDRFSAERLKGVDSTLKIQPAKLEDSAVYLCASTVGGGPYGYTFGSGTRLTVV
As for B5, the binding result is given as “recognises”.

B6: TCR5 (TCR, V domains shown)
Valpha: KNEVEQSPQNLTAQEGEFITINCSYSVGISALHWLQQHPGGGIVSLFMLSSGKKKHGRLIATINIQEKHSSLHITASHPRDSAVYICAPGGNQFYFGTGTSLTVIP
Vbeta: DAGITQSPRYKITETGRQVTLMCHQTWSHSYMFWYRQDLGHGLRLIYYSAAADITDKGEVPDGYVVSRSKTENFPLTLESATRSQTSVYFCASSGSNQPQHFGDGTRLSIL
Consider B6, for which the binding result is listed as “recognises”.
